Patent publication US20260295010 (published 2026)
Substitutions are numbered along the chain they refer to. Names may count otherwise. “And” between values parts separate entries of the source, which are not always exact repeats. Equal values may be shown once.

T1: IL-12RB2-hFc (human, UniProt Q99665)
T1 chain: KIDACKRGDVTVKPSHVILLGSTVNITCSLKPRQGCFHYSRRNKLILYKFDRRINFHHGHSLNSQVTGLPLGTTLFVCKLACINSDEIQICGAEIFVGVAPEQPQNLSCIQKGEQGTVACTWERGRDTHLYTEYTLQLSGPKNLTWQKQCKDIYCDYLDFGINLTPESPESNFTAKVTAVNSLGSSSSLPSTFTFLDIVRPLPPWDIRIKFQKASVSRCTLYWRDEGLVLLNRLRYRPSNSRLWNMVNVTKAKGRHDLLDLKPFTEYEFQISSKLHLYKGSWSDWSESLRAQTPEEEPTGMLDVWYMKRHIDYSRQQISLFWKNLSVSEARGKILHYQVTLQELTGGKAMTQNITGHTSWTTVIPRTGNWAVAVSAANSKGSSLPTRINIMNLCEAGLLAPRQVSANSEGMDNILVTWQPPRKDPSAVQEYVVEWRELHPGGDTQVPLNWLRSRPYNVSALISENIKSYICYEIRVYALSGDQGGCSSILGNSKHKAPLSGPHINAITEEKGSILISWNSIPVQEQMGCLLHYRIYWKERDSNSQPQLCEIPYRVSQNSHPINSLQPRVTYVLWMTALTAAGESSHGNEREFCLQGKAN

B1: IL-12p70 K265Y (protein)
chain 1: MIWELKKDVYVVELDWYPDAPGEMVVLTCDTPEEDGITWTLDQSSEVLGSGKTLTIQVKEFGDAGQYTCHKGGEVLSHSLLLLHKKEDGIWSTDILKDQKEPKNKTFLRCEAKNYSGRFTCWWLTTISTDLTFSVKSSRGSSDPQGVTCGAATLSAERVRGDNKEYEYSVECQEDSACPAAEESLPIEVMVDAVHKLKYENYTSSFFIRDIIKPDPPKNLQLKPLKNSRQVEVSWEYPDTWSTPHSYFSLTFSVQVQGKSKREKYDRVFTDKTSATVICRKNASISVRAQDRYYSSSWSEWASVPCSGGGSHHHHHH
chain 2: MRNLPVATPDPGMFPSLHHSQNLLRAVSNMLQKARQTLEFYPCTSEEIDHEDITKDKTSTVEACLPLELTKNESCLNSRETSFITNGSSLASRKTSFMMALCLSSIYEDLKMYQVEFKTMNAKLLMDPKRQIFLDQNMLAVIDELMQALNFNSETVPQKSSLEEPDFYKTKIKLCILLHAFRIRAVTIDRVMSYLNAS
B2: IL-12p70 L197A (protein)
chain 1: B1 chain 1 with L197A, Y265K
chain 2: B1 chain 2
B3: IL-12p70 K259Y (protein)
chain 1: B1 chain 1 with K259Y, Y265K
chain 2: B1 chain 2
B4: IL-12p70 D94K (protein)
chain 1: B1 chain 1 with D94K, Y265K
chain 2: B1 chain 2
B5: IL-12p70 E87K,K196E,K198E (protein)
chain 1: B1 chain 1 with E87K, K196E, K198E, Y265K
chain 2: B1 chain 2
B6: IL-12p70 p40-HIS6_C253S / p35_C16S_C89S (protein)
chain 1: B1 chain 1 with Y265K
chain 2: B1 chain 2
B7: IL-12p70 K196E (protein)
chain 1: B1 chain 1 with K196E, Y265K
chain 2: B1 chain 2
B8: IL-12p70 W16A (protein)
chain 1: B1 chain 1 with W16A, Y265K
chain 2: B1 chain 2
B9: IL-12p70 K105E (protein)
chain 1: B1 chain 1 with K105E, Y265K
chain 2: B1 chain 2
B10: IL-12p70 K259Y K265Y (protein)
chain 1: B1 chain 1 with K259Y
chain 2: B1 chain 2

Target: T1, IL-12RB2-hFc
Test: SPR, 25C

Binder	Kd
B1	1.6 nM
B2	0.55 nM
B3	1.1 nM
B4	1.2 nM
B5	0.61 nM
B6	0.75 nM and 0.34 nM
B7	0.42 nM
B8	0.62 nM
B9	0.56 nM

Target: T1, IL-12RB2-hFc
Test: SPR, 25C
Remark: another data set of the same source

Binder	Kd
B1	4.9 nM
B2	2.3 nM
B3	4 nM
B4	1.9 nM
B6	2.5 nM and 2.4 nM
B7	2.7 nM
B10	7 nM
B8	16 nM
B9	1.1 nM

Target: T2, IL-12RB1-hFc (human, UniProt P42701)
Test: SPR, 25C

Binder	Kd
B1	0.51 nM
B2	0.31 nM
B3	0.87 nM
B4	0.44 nM
B6	0.3 nM and 0.11 nM
B7	0.7 nM
B10	1.4 nM
B9	0.5 nM

Target: T2, IL-12RB1-hFc
Test: SPR, 25C
Remark: another data set of the same source

Binder	Kd
B1	0.11 nM
B2	0.05 nM
B3	0.08 nM
B4	0.75 nM
B6	0.04 nM
B7	0.15 nM
B9	0.13 nM

Target: T2, IL-12RB1-hFc
Test: SPR, 25C
Remark: another data set of the same source

Binder	koff
B5	0.0705 s⁻¹
B8	0.049 s⁻¹
